Assays:
[1] = molecular target: T1, human PCSK9 D347Y recombinant protein (human, UniProt Q8NBP7 31-692, biotin label (sites not given) in Examples 3 and 9); assay: cell-based or functional assay
[2] = molecular target: T2, human PCSK9 recombinant protein (human PCSK9 extracellular region protein) (human, UniProt Q8NBP7 31-692, biotin label (biotin-xx-NHS, sites not stated) in the ELISA and flow cytometry assays); assay: ForteBio instrument (BLI)
T2 construct: extracellular domain; The tag from the vector pSec CAGA2 ECD is not described; PCSK9 is a secreted protein; also called hPCSK9; HPCSK9
T2 sequence (Q8NBP7 31-692 limits assumed): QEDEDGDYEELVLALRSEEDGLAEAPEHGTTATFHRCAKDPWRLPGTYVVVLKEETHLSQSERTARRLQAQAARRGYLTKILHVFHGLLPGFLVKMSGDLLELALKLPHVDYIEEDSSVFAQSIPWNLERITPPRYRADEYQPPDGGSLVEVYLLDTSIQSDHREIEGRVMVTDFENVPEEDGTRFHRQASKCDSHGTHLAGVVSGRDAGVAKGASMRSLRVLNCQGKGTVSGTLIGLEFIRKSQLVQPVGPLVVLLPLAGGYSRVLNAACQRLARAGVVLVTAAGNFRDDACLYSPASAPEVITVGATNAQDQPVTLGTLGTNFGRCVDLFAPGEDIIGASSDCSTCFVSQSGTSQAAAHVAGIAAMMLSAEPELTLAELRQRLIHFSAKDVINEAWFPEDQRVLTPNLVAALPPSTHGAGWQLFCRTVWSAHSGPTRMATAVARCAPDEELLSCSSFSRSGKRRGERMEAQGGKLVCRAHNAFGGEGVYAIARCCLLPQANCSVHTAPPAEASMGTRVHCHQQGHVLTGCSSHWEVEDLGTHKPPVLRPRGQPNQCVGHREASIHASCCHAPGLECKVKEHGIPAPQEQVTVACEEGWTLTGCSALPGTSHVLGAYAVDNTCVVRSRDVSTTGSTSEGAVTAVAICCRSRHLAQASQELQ

murine-derived PCSK9 = murine-derived PCSK9 (murine, UniProt Q80W65 35-694, limits assumed); assay: ELISA, species cross-reactivity
murine-derived PCSK9, sequence (Q80W65 35-694 limits assumed): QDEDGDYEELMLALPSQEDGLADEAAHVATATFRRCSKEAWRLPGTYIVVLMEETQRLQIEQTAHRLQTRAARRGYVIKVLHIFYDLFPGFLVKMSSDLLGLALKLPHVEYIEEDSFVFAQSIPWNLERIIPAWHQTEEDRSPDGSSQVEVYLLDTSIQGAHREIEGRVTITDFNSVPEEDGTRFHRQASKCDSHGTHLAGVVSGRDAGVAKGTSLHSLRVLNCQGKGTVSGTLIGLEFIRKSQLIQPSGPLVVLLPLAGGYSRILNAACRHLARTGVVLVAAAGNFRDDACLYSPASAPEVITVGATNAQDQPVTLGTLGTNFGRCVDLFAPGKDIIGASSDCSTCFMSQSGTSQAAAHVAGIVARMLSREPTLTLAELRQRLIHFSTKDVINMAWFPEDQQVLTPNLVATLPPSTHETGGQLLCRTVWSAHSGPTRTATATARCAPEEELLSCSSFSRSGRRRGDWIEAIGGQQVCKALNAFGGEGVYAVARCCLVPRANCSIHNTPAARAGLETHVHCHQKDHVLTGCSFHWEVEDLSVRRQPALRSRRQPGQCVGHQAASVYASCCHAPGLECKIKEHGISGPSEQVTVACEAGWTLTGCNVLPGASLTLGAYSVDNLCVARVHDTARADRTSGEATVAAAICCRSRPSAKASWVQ

[3] = molecular target: T1, human PCSK9 D347Y recombinant protein; assay: ELISA, antibody coated at 1 ug/ml, biotin-labeled PCSK9 (D347Y by the legend) titrated, HRP-streptavidin; the concentration is that of PCSK9; unit taken from the axis log(pg/ml)
[4] = molecular target: T1, human PCSK9 D347Y recombinant protein; assay: competition ELISA, biotin-labeled PCSK9 (D347Y by the legend) captured on streptavidin, antibody titrated in 200 ng/ml reference antibody, bound reference antibody detected with anti-human IgG-Fc; competitor: reference antibody; unit taken from the axis log(ng/ml); the curve is nearly flat (OD450 about 1.2 to 1.1), ambiguous fit
[5] = molecular target: T1, human PCSK9 D347Y recombinant protein; assay: ELISA, biotin-labeled PCSK9 (D347Y by the legend) at 2 ug/ml captured on streptavidin, antibody titrated; unit taken from the axis log(ng/ml)
[6] = molecular target: T2, human PCSK9 recombinant protein (human …); assay: ELISA, biotin-labeled PCSK9 at 0.2 ug/ml captured on streptavidin, antibody titrated; unit taken from the axis LOG (pg/mL)
[7] = molecular target: T1, human PCSK9 D347Y recombinant protein; assay: competition ELISA, biotin-labeled PCSK9 (D347Y by the legend) captured on streptavidin, antibody titrated in 200 ng/ml reference antibody, bound reference antibody detected with anti-human IgG-Fc; competitor: reference antibody; unit taken from the axis log(ng/ml)
[8] = molecular target: T1, human PCSK9 D347Y recombinant protein; assay: cell-based or functional assay; remark: listed apart in the source
[9] = molecular target: T2, human PCSK9 recombinant protein (human …); assay: ELISA, biotin-labeled PCSK9 at 2 ug/ml captured on streptavidin, antibody titrated; unit taken from the axis log(pg/ml)

T1 sequence (Q8NBP7 31-692 D374Y): as the sequence (Q8NBP7 31-692 limits assumed) above, with D344Y counted along it

Binder | IC50, LDL uptake of HepG2 cells [1] [µg/mL] | Kd [2] [nM] | binding result (murine-derived PCSK9) | EC50 [3] [µg/mL] | IC50 [4] [µg/mL] | EC50 [5] [µg/mL] | IC50, LDL uptake of HepG2 cells (Dil-LDL fluorescence) [1] [µg/mL] | EC50 [6] [µg/mL] | IC50 [7] [µg/mL] | IC50(nM), LDL uptake of HepG2 cells (FL-LDL fluorescence) [8] [nM] | EC50 [9] [µg/mL]
1B11 murine-derived anti-PCSK9 monoclonal antibody (antibody, V domains shown, Mouse hybridoma antibody) VH: QVQLQQSGAVLVRPGTSIKVSCKASGYAFTNYLIEWIKKRPGQGLEWIGMINPGSGDTNFNEKFKAKATLTADKSSTTAYMQLNSLTFDDSAVYFCARSSQLGLPYWGQGTLVTVSA VL: DIQMTQSPASLSASVGETVTITCRASENIYSYLAWYQQKQENSPQLLVYNAYTLADGVPSRFSGSGSGTQFSLKIISLQPEDFGNYYCQHHYRTPPTFGGGTKLEIK | ~1 | 4.7 | no binding | 0.143 | ~0.227 |  |  |  |  |  | 
humanized anti-PCSK9 antibody clone 32 (antibody, V domains shown, also called humanized antibody) VH: QVQLQESGPGLVKPSQTLSLTCTVSGFSISSYGIHWIRQSPGKGLEWIGVIWRGGITDYNAPFMSRVTISKDNSKNQVSFKLSSVTAADTAVYYCANHRDWGQGTLVTVSS VL: DIQMTQSPSSLSASVGDRVTITCQASQDINKYIDWYQHKPGKAPKLLIHYASTLQPGVPSRFSGSGSGRDYTFTISSLQPEDIATYYCLQYDDLWTFGQGTKVEIK |  |  |  |  |  |  | ~1 | 0.00516 |  |  | 
1B5 murine-derived anti-PCSK9 monoclonal antibody (antibody, V domains shown, Mouse hybridoma antibody) VH: DVQLQESGPGLVKPSQSLSLTCTVTGYSITSDYAWNWIRQFPGNKVEWMGYISYSGSSSYNPSLKGRISITRDTSKNQFFLQLNSVTTEDTATYYCARFYYRFDAYFDSWGQGTTLTVSS VL: not shown | ~1 | 0.9 |  | 0.666 |  | 0.318 |  |  | 0.675 |  | 
3G12 murine-derived anti-PCSK9 monoclonal antibody (antibody, V domains shown, Mouse hybridoma antibody) VH: QVQLKQSGPSLLQPSQSLSITCTVSGFSLTSYGIHWVRQSPGKGLEWLGVIWRGGITDYNAPFMSRLNITKDNSKNQVFFKMNSLQVDDTAIYYCANHRDWGQGTLVTVSA VL: DIQMTQSPSSLSASLGGKVTITCKASQDINKYIDWYQHKPGKSPRLLIHYASTLQPGIPSRFSGSGSGRDYSFSISNLEPEDIATYYCLQYDDLWTFGGGTKLEIK | ~1 | 0.28 |  | 0.0835 |  | 0.223 |  |  | 0.0766 | 5.5 | 0.078
1A5 murine-derived anti-PCSK9 monoclonal antibody (antibody, V domains shown, Mouse hybridoma antibody) VH: QVQLKQSGPSLVQPSQSLSITCTVSGFSLTSYGVHWVRQSPGKGLEWLGVIWRGGSTDYNAAFMSRLSITKDNSKSQVFFKMNSLQADDTAIYYCANHRDWGQGTLVTVSA VL: DIQMTQSPSSLSASLGDKVTITCKASQDINKYIDWYQHKPGKGPRLLIHYTSTLQPGIPSRFSGSGSGRDYSFSISNLEPEDIATYYCVQYDDLWTFGGGTKLEIK | ~1 | 0.91 |  | 0.752 |  | 0.251 |  |  | 0.808 |  | 

Next, values leading:

IC50, LDL uptake of HepG2 cells [1] [µg/mL] | Kd [2] [nM] | binding result (murine-derived PCSK9) | EC50 [3] [µg/mL] | IC50 [4] [µg/mL] | EC50 [5] [µg/mL] | IC50, LDL uptake of HepG2 cells (Dil-LDL fluorescence) [1] [µg/mL] | EC50 [6] [µg/mL] | IC50 [7] [µg/mL] | IC50(nM), LDL uptake of HepG2 cells (FL-LDL fluorescence) [8] [nM] | EC50 [9] [µg/mL] | Binder
~1 | 0.49 |  | 0.0389 |  | 0.023 |  |  |  |  |  | 2B12 murine-derived anti-PCSK9 monoclonal antibody (antibody, V domains shown, Mouse hybridoma antibody) VH: DVQLQESGPGLVKPSQSLSLTCSVTGFSITSDYAWNWIRQFPGNKLEWMGYISYSGTTNYNPSLKSRISITRDTSKNQFFLHLNSVITEDTATYYCARREGHYSWFPYWGQGTLVTVSA VL: DIVLTQSPASLAVSLGQRATISCRASESVEYYGTSLMHWYQHKPGQTPKLLIYSGSNVESGVPARFSGSGSGTDFSLNIHPVEEDDIAMYFCQQSREVPSTFGGGTKLEIK
 |  |  |  |  |  | ~1 | 0.00481 |  |  |  | humanized anti-PCSK9 antibody clone 77 (antibody, V domains shown, It shares its light chain with clone 32; also called humanized antibody) VH: QVQLQESGPGLVKPSQTLSLTCTVSGFSISSYGVHWIRQSPGKGLEWIGVIWRGGSTDYNAAFMSRVTISKDNSKNQVSFKLSSVTAADTAVYYCANHRDWGQGTLVTVSS VL: DIQMTQSPSSLSASVGDRVTITCQASQDINKYIDWYQHKPGKAPKLLIHYASTLQPGVPSRFSGSGSGRDYTFTISSLQPEDIATYYCLQYDDLWTFGQGTKVEIK
 |  |  |  |  |  |  |  |  |  | 0.0338 | 3G12 chimeric antibody (antibody, V domains shown) VH: QVQLKQSGPSLLQPSQSLSITCTVSGFSLTSYGIHWVRQSPGKGLEWLGVIWRGGITDYNAPFMSRLNITKDNSKNQVFFKMNSLQVDDTAIYYCANHRDWGQGTLVTVSA VL: DIQMTQSPSSLSASLGGKVTITCKASQDINKYIDWYQHKPGKSPRLLIHYASTLQPGIPSRFSGSGSGRDYSFSISNLEPEDIATYYCLQYDDLWTFGGGTKLEIK
